What was measured:
[1] = molecular target: T1, SNAP25 Peptide 3 (PEP3; only a fragment of it is a SNAP25 subsequence) (Homo sapiens, UniProt P60880 SEQ:1-33); experiment: ELONA
T1 chain: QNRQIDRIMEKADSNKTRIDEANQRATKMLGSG
From the text: (§1) The data in Table 2 was collected by running direct ELISA assays on the 96 X-aptamers, elucidating their ability to bind SNAP25, SNAP25 fragments (PEP1, PEP2, PEP3, and PEP4), and a negative control. The X-aptamers were biotinylated and immobilized onto streptavidin-coated plates and were utilized as detection molecules. Higher numbers represent strong binding. The negative control peptide is a random peptide to measure the amount of binding that occurs to a random amino acid sequence.

[2] = molecular target: SNAP25 full length (FLAG and MYC tagged) (Homo sapiens, UniProt P60880 SEQ:12-217); experiment: ELONA; full-length SNAP25; conditions: tags: FLAG and MYC
SNAP25 full length (FLAG and MYC tagged), sequence (P60880 whole entry): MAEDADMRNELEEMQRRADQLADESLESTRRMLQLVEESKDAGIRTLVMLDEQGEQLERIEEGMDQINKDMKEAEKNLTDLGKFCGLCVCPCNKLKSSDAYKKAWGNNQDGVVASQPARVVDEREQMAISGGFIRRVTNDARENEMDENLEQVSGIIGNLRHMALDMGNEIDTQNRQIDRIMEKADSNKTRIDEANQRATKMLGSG
From the text: as §1

B1: PEP 3.09 (ssDNA)
DNA: TTTTTAAGCCCACTGCACTGTGTACATCGAACTGCACCAACGTGGGCCCATG
modifications: W indole, X amine, Y phenol modified dU [14X,19Y,23W,27X]
- binding signal [1]: 196 ELISA signal
- binding signal [2]: 168 ELISA signal

Source: patent US20220064648, “NOVEL X-[…] FOR THE USE IN DETECTION OF SNAP25” (Galderma Holding S.A., published 2022)
